Assay results as given in patent US20260209353A1 (BINACEA PHARMA, published 2026).
Residue numbers refer to the chain shown, from its start.

B1: Clone 3C3 VHH (secreted VHH in TG1 supernatant) (VHH)
VHH: QVQLVDSGGGLVQAGGSLRVSCAASGLTVSSEHMGWFRQAPGKQREFVAAISGNGGSTYYADSVKGRFTISRDNAKNTVYLQMNSLKPEDTAVYTCAADRQVWRVTSYHDYDYDSWGQGTLVTVSS
notes: Expressed from phagemid pADL-23c
B2: Clone 1D7 VHH (secreted VHH in TG1 supernatant) (VHH)
VHH: QVQLQESGGGLVQAGGSLRLSCAASGFTFDDYAIGWFRQAPGKEREGVSCISNIDGRTYYADSVKGRFTISSDNAKNTVYLQMNSLKPEDTAVYYCAAEGLHSCRDLYYGMDYWGKGTLVTVSS
notes: as for B1
B3: Clone 2B10 VHH (secreted VHH in TG1 supernatant) (VHH)
VHH: B2 VHH with Q5V, R57S, H102R
notes: as for B1
B4: Clone 1E2 VHH (secreted VHH in TG1 supernatant) (VHH)
VHH: B2 VHH with S103P
notes: as for B1
B5: Clone 2G7 VHH (secreted VHH in TG1 supernatant) (VHH)
VHH: B2 VHH with Q3K, Q5E, R57S, Y113H
notes: as for B1
B6: Clone 2G1 VHH (secreted VHH in TG1 supernatant) (VHH)
VHH: B2 VHH with N53S, R57S, S72R, A75D, A97T, L119Q
notes: as for B1
B7: Clone 2E7 VHH (secreted VHH in TG1 supernatant) (VHH)
VHH: B2 VHH with F27V, T28P, R57S
notes: as for B1
B8: Clone 1B1 VHH (secreted VHH in TG1 supernatant) (VHH)
VHH: B2 VHH with R19K, D30N, R38P, S52I, R57S, T69P
notes: as for B1
B9: Clone 1B3 VHH (secreted VHH in TG1 supernatant) (VHH)
VHH: B2 VHH with R57H, R105K
notes: as for B1

molecular target: T1, hu-CD8A ECD (recombinant, coated on ELISA plates) (human, UniProt P01732 22-182); assay: ELISA, VHH supernatants on hu-CD8A ECD coated plates
T1 construct: also called Human CD8A ECD; not shown: C-terminal (His)x6 or Fc tag
T1 sequence (P01732 22-182): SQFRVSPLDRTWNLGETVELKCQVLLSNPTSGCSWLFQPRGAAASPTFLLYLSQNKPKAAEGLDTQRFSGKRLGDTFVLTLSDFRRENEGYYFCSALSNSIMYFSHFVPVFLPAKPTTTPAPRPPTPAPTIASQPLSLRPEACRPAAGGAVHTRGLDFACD

| Binder | binding result |
| --- | --- |
| B1 | binds |
| B2 | binds |
| B3 | binds |
| B4 | binds |
| B5 | binds |
| B6 | binds |
| B7 | binds |
| B8 | binds |
| B9 | binds |
